Laboratory results as given in patent US20080207668A1, “PHARMACEUTICAL COMPOSITIONS OF HYD[…] PREVENTION OF OVERDOSE OR ABUSE” (New River Pharmaceuticals Inc., priority 2006, published 2008).
Where a name gives a salt, the structure may show the parent alone. Residues, ends and D or L forms follow the SMILES beside them. *: point of attachment. X5 = CC(=O)Oc1ccc2c3c1O[C@H]1C(O*)=CC[C@H]4[C@@H](C2)N(C)CC[C@]314; X2 = CN1CC[C@]23c4c5ccc(O)c4O[C@H]2C(O*)=CC[C@H]3[C@H]1C5

How the values were obtained:
[1] = Intranasal bioavailability of hydromorphone conjugates (plasma hydromorphone after intranasal dosing); format: in vivo, male Sprague-Dawley rats; conditions: rat, relative to hydromorphone control
Protocol: Oral, and intranasal bioavailability studies of hydromorphone and hydromorphone conjugates were conducted in male Sprague-Dawley rats. Doses of hydromorphone hydrochloride and hydromorphone conjugates containing equivalent amounts of hydromorphone were administered in deionized water. Oral administration was in 0.5 ml by gavage needle. Intranasal doses were administered by placing 20 microliters into the nasal flares of rats anesthetized with isoflurane. Plasma was collected by retroorbital sinus puncture under isoflurane anesthesia. hydromorphone were determined by LC/MS/MS.
Male Sprague-Dawley rats were provided water ad libitum and doses were administered by placing 0.02 ml of water containing hydromorphone conjugates or hydromorphone […] into the nasal flares. All doses contained equivalent amounts of hydromorphone base. Plasma hydromorphone concentrations were measured by ELISA (hydromorphone, 102919, Neogen, Corporation, Lexington, Ky.) and/or LC/MS. The assay is specific for hydromorphone. These examples illustrate that hydromorphone conjugates decrease the peak level (Cmax) and total absorption (AUC) of hydromorphone as compared to those produced by equimolar (hydromorphone base) doses of hydromorphone HCl when given by the intranasal route of administration.
The following Tables include Hydromorphone amino acid and peptide HCl salt conjugates that were synthesized and tested. Both oral and intranasal bioavailabilities were measured. The bold values are the “corrected values”, that were calculated based on the bioavailability of the control (HM).

[2] = Oral bioavailability of hydromorphone conjugates (plasma hydromorphone after oral gavage); conditions: rat, relative to hydromorphone control

Row | SMILES | IN AUC % (corrected value based on bioavailability of control HM) [1] [%] | IN Cmax % (corrected value based on control HM) [1] [%] | Oral AUC % (corrected value based on bioavailability of control HM) [2] [%] | Oral Cmax % (corrected value based on control HM) [2] [%]
1 | CN1CC[C@]23c4c5ccc(O)c4O[C@H]2C(OC(=O)[C@H](Cc2ccccc2)NC(=O)[C@H](Cc2ccccc2)NC(=O)[C@H](Cc2ccccc2)NC(=O)[C@H](CCC(=O)O)NC(=O)[C@@H](N)CCC(=O)O)=CC[C@H]3[C@H]1C5 [EEFFF-HM, Glu2-Phe3-Hydromorphone.Dihydrochloride] (H-EEFFF-X2) | 52 | 57 | 79 | 78
2 | CC[C@H](C)[C@H](NC(=O)[C@H](CCC(=O)O)NC(=O)[C@@H](N)CCC(=O)O)C(=O)OC1=CC[C@H]2[C@H]3Cc4ccc(O)c5c4[C@@]2(CCN3C)[C@H]1O5 [EEI-HM] | 59 | 88 | 56 | 73
3 | CC(C)C[C@H](NC(=O)[C@H](CCC(=O)O)NC(=O)[C@@H](N)CCC(=O)O)C(=O)OC1=CC[C@H]2[C@H]3Cc4ccc(O)c5c4[C@@]2(CCN3C)[C@H]1O5 [EEL-HM] | 84 | 98 | 27 | 49
4 | CC(C)[C@H](NC(=O)[C@H](CCC(=O)O)NC(=O)[C@@H](N)CCC(=O)O)C(=O)OC1=CC[C@H]2[C@H]3Cc4ccc(O)c5c4[C@@]2(CCN3C)[C@H]1O5 [EEV-HM] | 31 | 70 | 21 | 50
5 | CC[C@H](C)[C@H](NC(=O)[C@H](Cc1ccccc1)NC(=O)[C@@H](N)Cc1ccccc1)C(=O)OC1=CC[C@H]2[C@H]3Cc4ccc(O)c5c4[C@@]2(CCN3C)[C@H]1O5 [FFI-HM] | 79 | 92 | 18 | 47
6 | CC(C)C[C@H](NC(=O)[C@H](Cc1ccccc1)NC(=O)[C@@H](N)Cc1ccccc1)C(=O)OC1=CC[C@H]2[C@H]3Cc4ccc(O)c5c4[C@@]2(CCN3C)[C@H]1O5 [FFL-HM] | 92 | 96 | 11 | 24
7 | CC(C)[C@H](NC(=O)[C@H](Cc1ccccc1)NC(=O)[C@@H](N)Cc1ccccc1)C(=O)OC1=CC[C@H]2[C@H]3Cc4ccc(O)c5c4[C@@]2(CCN3C)[C@H]1O5 [FFV-HM] | 98 | 103 | 8 | 36
8 | CC[C@H](C)[C@H](NC(=O)CNC(=O)CN)C(=O)OC1=CC[C@H]2[C@H]3Cc4ccc(O)c5c4[C@@]2(CCN3C)[C@H]1O5 [GGI-HM] | 24 | 66 | 17 | 32
9 | CC(C)C[C@H](NC(=O)CNC(=O)CN)C(=O)OC1=CC[C@H]2[C@H]3Cc4ccc(O)c5c4[C@@]2(CCN3C)[C@H]1O5 [GGL-HM] | 52 | 85 | 22 | 43
10 | CC(C)[C@H](NC(=O)CNC(=O)CN)C(=O)OC1=CC[C@H]2[C@H]3Cc4ccc(O)c5c4[C@@]2(CCN3C)[C@H]1O5 [GGV-HM] | 51 | 73 | 53 | 63
11 | CC[C@H](C)[C@H](NC(=O)[C@H](CCCCN)NC(=O)[C@@H](N)CCCCN)C(=O)OC1=CC[C@H]2[C@H]3Cc4ccc(O)c5c4[C@@]2(CCN3C)[C@H]1O5 [KKI-HM] | 68 | 85 | 24 | 56
12 | CC(C)C[C@H](NC(=O)[C@H](CCCCN)NC(=O)[C@@H](N)CCCCN)C(=O)OC1=CC[C@H]2[C@H]3Cc4ccc(O)c5c4[C@@]2(CCN3C)[C@H]1O5 [KKL-HM] | 87 | 96 | 24 | 50
13 | CC(C)[C@H](NC(=O)[C@H](CCCCN)NC(=O)[C@@H](N)CCCCN)C(=O)OC1=CC[C@H]2[C@H]3Cc4ccc(O)c5c4[C@@]2(CCN3C)[C@H]1O5 [KKV-HM] | 75 | 89 | 43 | 60
14 | CC[C@H](C)[C@H](NC(=O)[C@@H]1CCCN1C(=O)[C@@H]1CCCN1)C(=O)OC1=CC[C@H]2[C@H]3Cc4ccc(O)c5c4[C@@]2(CCN3C)[C@H]1O5 [PPI-HM] | 77 | 95 | 21 | 60
15 | CC(C)C[C@H](NC(=O)[C@@H]1CCCN1C(=O)[C@@H]1CCCN1)C(=O)OC1=CC[C@H]2[C@H]3Cc4ccc(O)c5c4[C@@]2(CCN3C)[C@H]1O5 [PPL-HM] | 53 | 70 | 22 | 45
16 | CC(C)[C@H](NC(=O)[C@@H]1CCCN1C(=O)[C@@H]1CCCN1)C(=O)OC1=CC[C@H]2[C@H]3Cc4ccc(O)c5c4[C@@]2(CCN3C)[C@H]1O5 [PPV-HM] | 71 | 101 | 24 | 55
17 | CC[C@H](C)[C@H](NC(=O)[C@H](Cc1ccccc1)NC(=O)[C@H](Cc1ccccc1)NC(=O)[C@H](Cc1ccc(O)cc1)NC(=O)[C@@H](N)Cc1ccc(O)cc1)C(=O)OC1=CC[C@H]2[C@H]3Cc4ccc(OC(C)=O)c5c4[C@@]2(CCN3C)[C@H]1O5 [YYFFI-HM-OAc] (H-YYFFI-X5) | 59 | 72 | 29 | 40
18 | CC[C@H](C)[C@H](NC(=O)[C@H](Cc1ccccc1)NC(=O)[C@H](Cc1ccccc1)NC(=O)[C@H](Cc1ccc(O)cc1)NC(=O)[C@@H](N)Cc1ccc(O)cc1)C(=O)OC1=CC[C@H]2[C@H]3Cc4ccc(O)c5c4[C@@]2(CCN3C)[C@H]1O5 [YYFFI-HM] (H-YYFFI-X2) | 4 | 7 | 40 | 52
19 | CC[C@H](C)[C@H](NC(=O)[C@H](Cc1ccc(O)cc1)NC(=O)[C@@H](N)Cc1ccc(O)cc1)C(=O)OC1=CC[C@H]2[C@H]3Cc4ccc(O)c5c4[C@@]2(CCN3C)[C@H]1O5 [YYI-HM] | 88 | 86 | 32 | 66
20 | CC(C)C[C@H](NC(=O)[C@H](Cc1ccc(O)cc1)NC(=O)[C@@H](N)Cc1ccc(O)cc1)C(=O)OC1=CC[C@H]2[C@H]3Cc4ccc(O)c5c4[C@@]2(CCN3C)[C@H]1O5 [YYL-HM] | 74 | 75 | 12 | 30
21 | CC(C)[C@H](NC(=O)[C@H](Cc1ccc(O)cc1)NC(=O)[C@@H](N)Cc1ccc(O)cc1)C(=O)OC1=CC[C@H]2[C@H]3Cc4ccc(O)c5c4[C@@]2(CCN3C)[C@H]1O5 [YYV-HM] | 73 | 73 | 30 | 53
